# Experiments:
# Test in all cases: cell-based or functional assay
# [1] = molecular target: S protein of SARS-CoV strain Tor-II (SARS-CoV strain Tor-II) (UniProt P59594)
# [2] = molecular target: S protein of SARS-CoV strain Frank (SARS-CoV strain Frank)
# [3] = molecular target: S protein of SARS-CoV strain Urbani (SARS-CoV strain Urbani)
# [4] = molecular target: S protein of MERS-CoV strain EMC/2012 (MERS-CoV strain EMC/2012) (UniProt K9N5Q8)
# [5] = molecular target: S protein of HCoV strain OC43 (HCoV OC43) (UniProt P36334)
# [6] = molecular target: S protein of SARS-CoV-2 strain USA-WA1/2020 (SARS-CoV-2 strain USA-WA1/2020) (UniProt P0DTC2)
# [7] = molecular target: S protein of HCoV strain 229E (HCoV 229E) (UniProt P15423)
# [8] = molecular target: S protein of HCoV strain NL63 (HCoV NL63) (UniProt Q6Q1S2)
# [9] = molecular target: S protein of SARS-CoV strain CuHK (SARS-CoV strain CuHK)
# Sequence of UniProt P15423 (P15423 16-1173): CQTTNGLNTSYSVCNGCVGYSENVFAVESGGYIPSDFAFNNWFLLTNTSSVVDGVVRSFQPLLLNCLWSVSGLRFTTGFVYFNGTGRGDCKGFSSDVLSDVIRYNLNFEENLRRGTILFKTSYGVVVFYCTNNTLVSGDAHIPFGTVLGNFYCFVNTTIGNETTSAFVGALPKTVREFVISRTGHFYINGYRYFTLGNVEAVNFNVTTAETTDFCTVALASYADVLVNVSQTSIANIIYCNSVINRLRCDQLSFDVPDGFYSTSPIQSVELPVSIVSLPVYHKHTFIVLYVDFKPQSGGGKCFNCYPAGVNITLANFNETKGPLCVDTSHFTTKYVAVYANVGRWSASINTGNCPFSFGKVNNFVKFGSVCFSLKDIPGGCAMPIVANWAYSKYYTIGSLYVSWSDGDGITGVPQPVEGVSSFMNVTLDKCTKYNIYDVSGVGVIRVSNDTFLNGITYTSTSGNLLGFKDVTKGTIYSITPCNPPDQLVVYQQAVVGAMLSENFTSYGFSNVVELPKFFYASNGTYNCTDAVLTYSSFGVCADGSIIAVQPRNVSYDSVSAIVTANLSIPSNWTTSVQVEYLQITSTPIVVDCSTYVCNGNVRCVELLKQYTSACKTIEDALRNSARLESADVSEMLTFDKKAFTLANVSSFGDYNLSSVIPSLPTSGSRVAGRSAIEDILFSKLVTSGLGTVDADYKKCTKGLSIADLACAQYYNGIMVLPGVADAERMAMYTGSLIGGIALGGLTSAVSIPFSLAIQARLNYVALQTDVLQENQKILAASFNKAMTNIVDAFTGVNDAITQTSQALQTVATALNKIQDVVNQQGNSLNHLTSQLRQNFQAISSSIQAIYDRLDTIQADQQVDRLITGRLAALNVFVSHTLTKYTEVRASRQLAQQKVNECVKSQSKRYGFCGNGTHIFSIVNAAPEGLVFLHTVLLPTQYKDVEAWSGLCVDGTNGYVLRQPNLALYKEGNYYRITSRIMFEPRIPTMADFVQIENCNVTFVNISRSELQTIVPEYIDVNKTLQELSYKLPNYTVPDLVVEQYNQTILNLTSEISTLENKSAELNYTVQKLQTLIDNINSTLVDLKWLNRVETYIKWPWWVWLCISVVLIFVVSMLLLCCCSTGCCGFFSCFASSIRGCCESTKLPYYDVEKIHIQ
# Sequence of UniProt Q6Q1S2 (Q6Q1S2 19-1356): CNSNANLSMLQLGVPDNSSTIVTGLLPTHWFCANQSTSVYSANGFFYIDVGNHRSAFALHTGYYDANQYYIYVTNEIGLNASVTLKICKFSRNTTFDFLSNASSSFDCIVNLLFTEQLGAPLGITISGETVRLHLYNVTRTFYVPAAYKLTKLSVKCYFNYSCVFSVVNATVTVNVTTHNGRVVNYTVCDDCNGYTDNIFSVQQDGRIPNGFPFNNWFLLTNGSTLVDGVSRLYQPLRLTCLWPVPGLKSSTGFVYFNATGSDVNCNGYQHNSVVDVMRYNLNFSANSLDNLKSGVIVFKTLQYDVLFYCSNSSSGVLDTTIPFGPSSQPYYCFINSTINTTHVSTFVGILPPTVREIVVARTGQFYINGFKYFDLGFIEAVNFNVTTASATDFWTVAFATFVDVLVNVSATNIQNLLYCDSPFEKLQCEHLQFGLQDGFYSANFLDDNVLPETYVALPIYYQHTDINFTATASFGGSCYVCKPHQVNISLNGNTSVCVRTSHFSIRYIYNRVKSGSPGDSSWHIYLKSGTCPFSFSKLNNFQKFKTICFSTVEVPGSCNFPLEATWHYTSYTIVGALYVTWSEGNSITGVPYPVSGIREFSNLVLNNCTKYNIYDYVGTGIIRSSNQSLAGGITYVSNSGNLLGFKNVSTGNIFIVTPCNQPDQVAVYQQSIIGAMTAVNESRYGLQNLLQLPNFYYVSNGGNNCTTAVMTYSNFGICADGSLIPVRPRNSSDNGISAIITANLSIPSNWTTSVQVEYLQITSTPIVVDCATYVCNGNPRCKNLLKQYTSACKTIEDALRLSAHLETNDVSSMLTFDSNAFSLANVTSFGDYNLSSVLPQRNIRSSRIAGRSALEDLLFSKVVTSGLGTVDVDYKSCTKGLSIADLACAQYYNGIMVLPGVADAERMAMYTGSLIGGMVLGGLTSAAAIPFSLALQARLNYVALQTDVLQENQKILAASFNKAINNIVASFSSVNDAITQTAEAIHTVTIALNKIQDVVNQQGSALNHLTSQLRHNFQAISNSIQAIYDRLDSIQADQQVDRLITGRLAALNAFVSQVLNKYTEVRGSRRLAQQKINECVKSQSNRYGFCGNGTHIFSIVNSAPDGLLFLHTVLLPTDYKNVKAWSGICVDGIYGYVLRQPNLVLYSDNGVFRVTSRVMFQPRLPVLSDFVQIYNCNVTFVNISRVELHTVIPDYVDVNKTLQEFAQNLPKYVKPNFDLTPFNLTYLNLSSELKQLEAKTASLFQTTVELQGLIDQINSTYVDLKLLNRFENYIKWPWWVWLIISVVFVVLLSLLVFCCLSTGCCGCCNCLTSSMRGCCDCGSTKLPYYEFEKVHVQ
# Sequence of UniProt P36334 (P36334 14-1353): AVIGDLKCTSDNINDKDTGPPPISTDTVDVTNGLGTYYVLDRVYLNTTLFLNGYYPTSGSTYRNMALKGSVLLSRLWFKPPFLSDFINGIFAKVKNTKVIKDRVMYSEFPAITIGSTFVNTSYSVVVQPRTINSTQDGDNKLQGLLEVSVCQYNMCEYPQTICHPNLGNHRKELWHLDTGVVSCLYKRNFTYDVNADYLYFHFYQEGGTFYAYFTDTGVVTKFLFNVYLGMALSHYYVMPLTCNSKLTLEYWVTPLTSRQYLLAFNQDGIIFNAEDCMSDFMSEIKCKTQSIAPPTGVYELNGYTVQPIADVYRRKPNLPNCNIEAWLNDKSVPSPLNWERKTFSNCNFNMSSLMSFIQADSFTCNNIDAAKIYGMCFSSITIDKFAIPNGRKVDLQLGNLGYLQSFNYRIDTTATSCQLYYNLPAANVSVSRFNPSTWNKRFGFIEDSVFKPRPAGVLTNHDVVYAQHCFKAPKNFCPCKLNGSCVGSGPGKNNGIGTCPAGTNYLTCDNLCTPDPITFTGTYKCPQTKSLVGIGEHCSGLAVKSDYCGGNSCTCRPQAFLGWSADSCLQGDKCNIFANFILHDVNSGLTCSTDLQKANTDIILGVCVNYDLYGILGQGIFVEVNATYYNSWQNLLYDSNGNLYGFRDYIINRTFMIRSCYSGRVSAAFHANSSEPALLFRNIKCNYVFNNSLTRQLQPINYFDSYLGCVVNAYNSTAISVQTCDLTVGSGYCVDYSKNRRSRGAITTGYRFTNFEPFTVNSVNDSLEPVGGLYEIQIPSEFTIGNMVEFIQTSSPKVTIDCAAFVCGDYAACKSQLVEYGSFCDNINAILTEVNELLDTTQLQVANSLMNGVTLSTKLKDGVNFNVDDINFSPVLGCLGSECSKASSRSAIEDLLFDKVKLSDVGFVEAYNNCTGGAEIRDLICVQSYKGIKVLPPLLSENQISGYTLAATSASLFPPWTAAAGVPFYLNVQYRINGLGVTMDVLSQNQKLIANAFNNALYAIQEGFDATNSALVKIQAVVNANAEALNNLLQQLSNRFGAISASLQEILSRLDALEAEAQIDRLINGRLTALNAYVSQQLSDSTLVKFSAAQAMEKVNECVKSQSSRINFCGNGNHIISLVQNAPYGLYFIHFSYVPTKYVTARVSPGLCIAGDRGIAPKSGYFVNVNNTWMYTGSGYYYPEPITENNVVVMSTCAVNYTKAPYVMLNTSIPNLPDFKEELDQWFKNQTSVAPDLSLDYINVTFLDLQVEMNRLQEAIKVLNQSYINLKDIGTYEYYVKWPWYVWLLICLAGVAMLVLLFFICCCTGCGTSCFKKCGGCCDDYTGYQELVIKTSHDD
substance,measurement,setting,value
wild-type griffithsin,Antiviral activity EC50,[1],0.61 mg/L
same,Antiviral activity EC50,[2],1.19 mg/L
same,Antiviral activity EC50,[3],0.61 mg/L
same,Antiviral activity EC50,[4],< 0.124 mg/L
same,Antiviral activity EC50,[5],0.16 mg/L
same,Antiviral activity EC50,[6],< 0.1 mg/L
same,Antiviral activity EC50,[7],0.18 mg/L
same,Antiviral activity EC50,[8],< 0.0032 mg/L
same,Antiviral activity EC50,[9],0.78 mg/L

# Reference: patent US20230218715A1
